The values below come from FireProtDB (doi:10.1002/pro.2449).

Sequences and labels used below:
B1: Guanyl-specific ribonuclease T1, P00651 (parent)
chain: MMYSKLLTLTTLLLPTALALPSLVERACDYTCGSNCYSSSDVSTAQAAGYQLHEDGETVGSNSYPHKYNNYEGFDFSVSSPYYEWPILSSGDVYSGGSPGADRVVFNENNQLAGVITHTGASGNNFVECT
B2: Guanyl-specific ribonuclease Sa, P05798 (parent)
chain: DVSGTVCLSALPPEATDTLNLIASDGPFPYSQDGVVFQNRESVLPTQSYGYYHEYTVITPGARTRGTRRIITGEATQEDYYTGDHYATFSLIDQTC

In data set [1] the parent is B1. The note with it: Aspergillus oryzae (strain ATCC 42149 / RIB 40), pH 7, MOPS, transition: 2, reversible: yes, structure 1YGW, whole UniProt chain shown; for denaturant m value / denaturant midpoint (higher = more stable) / unfolding free energy: 25 °C, Urea; for Tm / change of melting temperature, mutant - wild type (higher = more stable) / ddG of mutation (higher = less stable) / unfolding enthalpy (calorimetric): Thermal, DSC.

The variants in data set [2] derive from B2. Particulars: Kitasatospora aureofaciens; pH 7; Thermal; DSC; MOPS; transition: 2; reversible: yes; structure 1RGG; whole UniProt chain shown.

Consider T117A, for which, in data set [1], the denaturant m value worked out at 1.25 kcal/mol/M, the “denaturant midpoint (higher = more stable)” value (from here on “denaturant midpoint”) was found to be 2.32 M, the unfolding free energy came to 2.9 kcal/mol and the Tm turned out to be 41.9 °C. In data set [1], the “change of melting temperature, mutant - wild type (higher = more stable)” value (from here on “change of melting temperature, mutant”) was -10.6 °C; the “ddG of mutation (higher = less stable)” value stood at 3.2 kcal/mol; the “unfolding enthalpy (calorimetric)” value stood at 98 kcal/mol.

Consider T117V, for which, in data set [1], the denaturant m value was determined as 1.24 kcal/mol/M, the “denaturant midpoint” value came out at 2.07 M, the unfolding free energy is 2.6 kcal/mol and the Tm was 40.7 °C. Besides, in data set [1], the “change of melting temperature, mutant” value was -11.8 °C; the “ddG of mutation (higher = less stable)” value amounted to 3.6 kcal/mol; the “unfolding enthalpy (calorimetric)” value was 95 kcal/mol.

For the variant T119V, in data set [1], the denaturant m value was 1.2 kcal/mol/M, the “denaturant midpoint” value worked out at 4.16 M, the unfolding free energy is 5 kcal/mol and the Tm amounted to 49.3 °C. Also, in data set [1], the “change of melting temperature, mutant” value is -3.2 °C; the “ddG of mutation (higher = less stable)” value is 1 kcal/mol; the “unfolding enthalpy (calorimetric)” value amounted to 97 kcal/mol.

Take T119A: in data set [1], the denaturant m value stood at 0.91 kcal/mol/M, the “denaturant midpoint” value came to 4.46 M, the unfolding free energy was determined as 4.1 kcal/mol and the Tm is 50.2 °C. Further, in data set [1], the “change of melting temperature, mutant” value is -2.3 °C; the “ddG of mutation (higher = less stable)” value is 0.7 kcal/mol; the “unfolding enthalpy (calorimetric)” value turned out to be 104 kcal/mol.

In the case of T117A T119V, in data set [1], the denaturant m value worked out at 1.21 kcal/mol/M, the “denaturant midpoint” value was determined as 2.35 M, the unfolding free energy turned out to be 2.9 kcal/mol and the Tm came out at 41.4 °C. Moreover, in data set [1], the “change of melting temperature, mutant” value is -11 °C; the “ddG of mutation (higher = less stable)” value turned out to be 3.4 kcal/mol; the “unfolding enthalpy (calorimetric)” value was 90 kcal/mol.

As to T117A T119A, in data set [1], the denaturant m value was determined as 1.21 kcal/mol/M, the “denaturant midpoint” value turned out to be 1.9 M, the unfolding free energy is 2.3 kcal/mol and the Tm was found to be 40.5 °C. In data set [1], the “change of melting temperature, mutant” value was -12 °C; the “ddG of mutation (higher = less stable)” value was determined as 3.7 kcal/mol; the “unfolding enthalpy (calorimetric)” value came to 96 kcal/mol.

Regarding T117V T119A, in data set [1], the denaturant m value turned out to be 1.33 kcal/mol/M, the “denaturant midpoint” value is 1.9 M, the unfolding free energy stood at 2.5 kcal/mol and the midpoint of thermal melting (Tm) amounted to 38.5 °C. Also, in data set [1], the “change of melting temperature, mutant” value is -14 °C; the “ddG of mutation (higher = less stable)” value is 4.3 kcal/mol; the “unfolding enthalpy (calorimetric)” value was determined as 92 kcal/mol.

In the case of T117V T119V, in data set [1], the denaturant m value amounted to 1.32 kcal/mol/M, the “denaturant midpoint” value turned out to be 2.19 M and the unfolding free energy stood at 2.9 kcal/mol.

S9A: in data set [2], the “change of melting temperature, mutant” value was -4.5 °C; the “ddG of mutation (higher = less stable)” value was 1.3 kcal/mol; the “unfolding enthalpy (calorimetric)” value amounted to 91 kcal/mol.

With S42A, in data set [2], the “change of melting temperature, mutant” value worked out at 0.4 °C; the “ddG of mutation (higher = less stable)” value is -0.1 kcal/mol; the “unfolding enthalpy (calorimetric)” value was found to be 92 kcal/mol.

For N39A, in data set [2], the “change of melting temperature, mutant” value is -7.3 °C; the “ddG of mutation (higher = less stable)” value was 2 kcal/mol; the “unfolding enthalpy (calorimetric)” value turned out to be 66 kcal/mol.

As to S24A, in data set [2], the “change of melting temperature, mutant” value is -0.7 °C; the “ddG of mutation (higher = less stable)” value was 0.2 kcal/mol; the “unfolding enthalpy (calorimetric)” value was 77 kcal/mol.

As for T95A, in data set [2], the “change of melting temperature, mutant” value was -2.1 °C; the “ddG of mutation (higher = less stable)” value was found to be 0.6 kcal/mol; the “unfolding enthalpy (calorimetric)” value was 97 kcal/mol.

Turning to S31A, in data set [2], the “change of melting temperature, mutant” value turned out to be 1.5 °C; the “ddG of mutation (higher = less stable)” value is -0.4 kcal/mol; the “unfolding enthalpy (calorimetric)” value was found to be 91 kcal/mol.

Turning to S3A, in data set [2], the “change of melting temperature, mutant” value was -1.1 °C; the “ddG of mutation (higher = less stable)” value is 0.3 kcal/mol; the “unfolding enthalpy (calorimetric)” value was 86 kcal/mol.

S48A: in data set [2], the “change of melting temperature, mutant” value came out at 1.7 °C; the “ddG of mutation (higher = less stable)” value was -0.5 kcal/mol; the “unfolding enthalpy (calorimetric)” value amounted to 92 kcal/mol.

Take N20A: in data set [2], the “change of melting temperature, mutant” value is -0.1 °C; the “ddG of mutation (higher = less stable)” value was found to be 0 kcal/mol; the “unfolding enthalpy (calorimetric)” value was 89 kcal/mol.

As to S90A, in data set [2], the “change of melting temperature, mutant” value turned out to be 0.7 °C; the “ddG of mutation (higher = less stable)” value was -0.2 kcal/mol; the “unfolding enthalpy (calorimetric)” value is 86 kcal/mol.
